Changes are numbered by the printed parent chain. Names may count otherwise.
What was measured:
Type in all cases: biochemical, Alcaligenes faecalis
[1] = substrate: CC1(C)S[C@@H]2[C@H](NC(=O)COc3ccccc3)C(=O)N2[C@H]1C(=O)O; assay: Deacylation kinetics and phenylacetic acid product inhibition, wild type PenG acylase; details: other: wild type; 40 mM NaH2PO4, pH 7.5, 37° C.; pH 7.5; 37.0 °C
Description: (§1) In order to determine enzymatic activity the acylases were incubated with substrate at room temperature in buffered solution. In case β-lactamase impurity was expected to be present in the enzyme preparations, 1.0 mM -lactamase inhibitor 6-bromo-penicillanic acid was added to the assay. The reactions were stopped by adding an excess PMSF. For some mutants which were less sensitive to PMSF inhibition, the reactions were stopped by adding 0.5 M HCl or 0.5 M acetic acid until the pH was between 3 and 4. When reactions were subsequently analysed by HPLC, the reactions were stopped by dilution with the correponding elution solvent (see table 1). In addition substrates were incubated under assay conditions in absence of enzyme. If necessary enzyme assays were corrected for non-enzymatic hydrolysis
(§2) The composition of the reaction mixtures was determined by high-performanceliquid chromatography (HPLC)(table 1). Concentrations were determined by using standards of known concentration.
(§3) In a continuous assay Penicillin G acylase was assayed spectro-fotometrically with the chromogenic substrate NIPAB [6-nitro-3-phenylacetamido-benzoic acid]. The liberation of 3-amino-6-nitrobenzoic acid was monitored by measuring the extinction at 405 nm in a Kontron 610 kinetic spectrofotometer. […] Initial rate measurements were performed with varying concentration of NIPAB.
(§4) The kinetics of enzymatic hydrolysis of PenG, PenV, CefG were also studied by alkaline titration (0, OlM KOH), using a Radiometer pH-stat. All experiments were carried out in a buffer free medium.
(§5) Initial rate measurements were performed with excess substrate over the enzyme. Catalytic parameters were derived from least-squares fitting of the measured initial rates plotted for various substrate concentrations according to the Michaelis-Menten equation.
(§6) The complete conversion of NIPAB was followed as a funtion of time at 20, 50 and 100 μM NIPAB by following the increase in absorbtion at 405 nm. Products of this conversion are phenylacetic acid and 3-amino-6-nitrobenzoic acid. […] The progress curves of the deacylation of NIPAB could be fitted very well when product inhibition by phenylacetic acid was taken into account. The dissociation constants (usually referred to as inhibition constant Ki) for phenylacetic acid which could be derived from the progress curves is shown in table 11. For these mutants the yield of the conversion in a fixed time span is higher than for wild type. Alternatively, in order to obtain a certain yield a shorter conversion time is needed for the mutants.

[2] = substrate: CC1(C)S[C@@H]2[C@H](NC(=O)Cc3ccccc3)C(=O)N2[C@H]1C(=O)O; assay: as above; details: other: wild type; 40 mM NaH2PO4, pH 7.5, 37° C.; pH 7.5; 37.0 °C
Description: as §1, §2, §3, §4, §5, §6

[3] = substrate: CC1(C)S[C@@H]2[C@H](NC(=O)[C@H](N)c3ccc(O)cc3)C(=O)N2[C@H]1C(=O)O; assay: as above; details: other: wild type; 20 mM NaH2PO4, pH 7.0, 37° C.; pH 7.0; 37.0 °C
Description: as §1, §2, §3, §4, §5, §6

[4] = substrate: CC1(C)S[C@@H]2[C@H](NC(=O)[C@H](N)c3ccccc3)C(=O)N2[C@H]1C(=O)O; assay: as above; details: other: wild type; 20 mM NaH2PO4, pH 7.0, 37° C.; pH 7.0; 37.0 °C
Description: as §1, §2, §3, §4, §5, §6

[5] = substrate: CC1=C(C(=O)O)N2C(=O)[C@@H](NC(=O)Cc3ccccc3)[C@H]2SC1; assay: as above; details: other: wild type; 20 mM NaH2PO4, pH 7.5, 37° C.; pH 7.5; 37.0 °C
Description: as §1, §2, §3, §4, §5, §6

[6] = substrate: NC(=O)[C@H](N)c1ccccc1; assay: as above; details: other: wild type; 20 mM NaH2PO4, pH 7.0, 37° C.; pH 7.0; 37.0 °C
Description: as §1, §2, §3, §4, §5, §6

[7] = substrate: O=C(Cc1ccccc1)Nc1ccc([N+](=O)[O-])c(C(=O)O)c1; assay: as above; details: other: wild type; 0.1M NaH2PO4, pH 7.5, 25° C.; pH 7.5; 25.0 °C
Description: as §1, §2, §3, §4, §5, §6

[8] = substrate: CC1(C)S[C@@H]2[C@H](NC(=O)COc3ccccc3)C(=O)N2[C@H]1C(=O)O; assay: Deacylation kinetics and phenylacetic acid product inhibition, mutant B:L56K; details: other: B:L56K; 40 mM NaH2PO4, pH 7.5, 37° C.; pH 7.5; 37.0 °C
Description: as §1, §2
as §3, with “NIPAB. […]” for “NIPAB.”
as §5, §6

[9] = substrate: CC1(C)S[C@@H]2[C@H](NC(=O)Cc3ccccc3)C(=O)N2[C@H]1C(=O)O; assay: as above; details: other: B:L56K; 40 mM NaH2PO4, pH 7.5, 37° C.; pH 7.5; 37.0 °C
Description: as §1, §2
as §3, with “NIPAB. […]” for “NIPAB.”
as §5, §6

[10] = substrate: CC1(C)S[C@@H]2[C@H](NC(=O)[C@H](N)c3ccccc3)C(=O)N2[C@H]1C(=O)O; assay: as above; details: other: B:L56K; 20 mM NaH2PO4, pH 7.0, 37° C.; pH 7.0; 37.0 °C
Description: as §1, §2
as §3, with “NIPAB. […]” for “NIPAB.”
as §5, §6

[11] = substrate: CC1=C(C(=O)O)N2C(=O)[C@@H](NC(=O)Cc3ccccc3)[C@H]2SC1; assay: as above; details: other: B:L56K; 20 mM NaH2PO4, pH 7.5, 37° C.; pH 7.5; 37.0 °C
Description: as §1, §2
as §3, with “NIPAB. […]” for “NIPAB.”
as §5, §6

[12] = substrate: NC(=O)[C@H](N)c1ccccc1; assay: as above; details: other: B:L56K; 20 mM NaH2PO4, pH 7.0, 37° C.; pH 7.0; 37.0 °C
Description: as §1, §2
as §3, with “NIPAB. […]” for “NIPAB.”
as §5, §6

[13] = substrate: O=C(Cc1ccccc1)Nc1ccc([N+](=O)[O-])c(C(=O)O)c1; assay: as above; details: other: B:L56K; 0.1M NaH2PO4, pH 7.5, 25° C.; pH 7.5; 25.0 °C
Description: as §1, §2
as §3, with “NIPAB. […]” for “NIPAB.”
as §5, §6

[14] = substrate: CC1(C)S[C@@H]2[C@H](NC(=O)COc3ccccc3)C(=O)N2[C@H]1C(=O)O; assay: Deacylation kinetics and phenylacetic acid product inhibition, mutant A:M143V; details: other: A:M143V; 40 mM NaH2PO4, pH 7.5, 37° C.; pH 7.5; 37.0 °C
Description: as §1, §2
as §3, with “NIPAB. […]” for “NIPAB.”
as §5, §6

[15] = substrate: CC1(C)S[C@@H]2[C@H](NC(=O)Cc3ccccc3)C(=O)N2[C@H]1C(=O)O; assay: as above; details: other: A:M143V; 40 mM NaH2PO4, pH 7.5, 37° C.; pH 7.5; 37.0 °C
Description: as §1, §2
as §3, with “NIPAB. […]” for “NIPAB.”
as §5, §6

[16] = substrate: CC1(C)S[C@@H]2[C@H](NC(=O)[C@H](N)c3ccc(O)cc3)C(=O)N2[C@H]1C(=O)O; assay: as above; details: other: A:M143V; 20 mM NaH2PO4, pH 7.0, 37° C.; pH 7.0; 37.0 °C
Description: as §1, §2
as §3, with “NIPAB. […]” for “NIPAB.”
as §5, §6

[17] = substrate: CC1(C)S[C@@H]2[C@H](NC(=O)[C@H](N)c3ccccc3)C(=O)N2[C@H]1C(=O)O; assay: as above; details: other: A:M143V; 20 mM NaH2PO4, pH 7.0, 37° C.; pH 7.0; 37.0 °C
Description: as §1, §2
as §3, with “NIPAB. […]” for “NIPAB.”
as §5, §6

[18] = substrate: CC1=C(C(=O)O)N2C(=O)[C@@H](NC(=O)Cc3ccccc3)[C@H]2SC1; assay: as above; details: other: A:M143V; 20 mM NaH2PO4, pH 7.5, 37° C.; pH 7.5; 37.0 °C
Description: as §1, §2
as §3, with “NIPAB. […]” for “NIPAB.”
as §5, §6

[19] = substrate: NC(=O)[C@H](N)c1ccccc1; assay: as above; details: other: A:M143V; 20 mM NaH2PO4, pH 7.0, 37° C.; pH 7.0; 37.0 °C
Description: as §1, §2
as §3, with “NIPAB. […]” for “NIPAB.”
as §5, §6

[20] = substrate: O=C(Cc1ccccc1)Nc1ccc([N+](=O)[O-])c(C(=O)O)c1; assay: as above; details: other: A:M143V; 0.1M NaH2PO4, pH 7.5, 25° C.; pH 7.5; 25.0 °C
Description: as §1, §2
as §3, with “NIPAB. […]” for “NIPAB.”
as §5, §6

B1: Alcaligenes faecalis Penicillin G acylase, wild type (α subunit SEQ ID NO:27, β subunit SEQ ID NO:32) (Alcaligenes faecalis) (protein)
chain 1: QVQSVEVMRDSYGVPHVFADSHYGLYYGYGYAVAQDRLFQMDMARRSFVGTTAAVLGPGEQDAYVKYDMQVRQNFTPASIQRQIAALSKDERDIFRGYADGYNAYLEQVRRRPELLPKEYVDFDFQPEPLTDFDVVMIWVGSMANRFSDTNLEVTALAMRQSLEKQHGPERGRALFDELLWINDTTAPTTVPAPAAEHKPQA
chain 2: SNLWSTRPERVQEGSTVLINGPQFGWYNPAYTYGIGLHGAGFDVVGNTPFAYPIVLFGTNSEIAWGATAGPQDVVDIYQEKLNPSRADQYWFNNAWRTMEQRKERIQVRGQADREMTIWRTVHGPVMQFDYDQGAAYSKKRSWDGYEVQSLLAWLNVAKARNWTEFLDQASKMAISINWYYADKHGNIGYVSPAFLPQRPADQDIRVPAKGDGSMEWLGIKSFDAIPKAYNPPQGYLVNWNNKPAPDKTNTDTYYWTYGDRMNELVSQYQQKDLFSVQEIWEFNQKASYSDVNWRYFRPHLEKLAQQLPADDSSKAALTMLLAWDGMEQDQGGQNAGPARVLFKTWLEEMYKQVLMPVVPESHRAMYSQTGFATQQGPNPGSINLSMGTKVLLRALVLEAHPDPKRVNVFGERSSQEIMHTALQNAQARLSQEQGAQMARWTMPTSVHRFSDKNFTGTPQTMPGNTFAFTGYQNRGTENNRVVFDAKGVEFCDAMPPGQSGFTDRNGVRSPHYEDQLKLYENFECKTMDVTHADIRRNAQSSTMLLIQPQP
notes: alpha 202 aa, beta 551 aa; likely recombinant, E. coli host
- Km [1]: 18 µM
- Vmax [1]: 4.0 U/mg
- Km [2]: 2 µM
- Vmax [2]: 45.5 U/mg
- Km [3]: 14000 µM
- Vmax [3]: .9 U/mg
- Km [4]: 700 µM
- Vmax [4]: 23.5 U/mg
- Km [5]: 1 µM
- Vmax [5]: 12.5 U/mg
- Km [6]: 8600 µM
- Vmax [6]: 27.5 U/mg
- Km [7]: 4 µM
- Vmax [7]: 37.0 U/mg

B2: Alcaligenes faecalis Penicillin G acylase mutant B:L56K (Alcaligenes faecalis; L321K) (protein)
chain 1: B1 chain 1
chain 2: B1 chain 2 with L56K
notes: alpha 202 aa, beta 551 aa; recombinant, E. coli host
- Km [8]: 35 µM
- Vmax [8]: 15.5 U/mg
- Km [9]: 1 µM
- Vmax [9]: 36.4 U/mg
- Km [10]: 1700 µM
- Vmax [10]: 20.9 U/mg
- Km [11]: 10 µM
- Vmax [11]: 25.5 U/mg
- Km [12]: 49000 µM
- Vmax [12]: 18.2 U/mg
- Km [13]: 28 µM
- Vmax [13]: 47.3 U/mg

B3: Alcaligenes faecalis Penicillin G acylase mutant A:M143V (Alcaligenes faecalis; M169V) (protein)
chain 1: B1 chain 1 with M143V
chain 2: B1 chain 2
notes: as for B2
- Km [14]: 31 µM
- Vmax [14]: 10.3 U/mg
- Km [15]: 6 µM
- Vmax [15]: 40.5 U/mg
- Km [16]: 21000 µM
- Vmax [16]: .2 U/mg
- Km [17]: 1500 µM
- Vmax [17]: 23.0 U/mg
- Km [18]: 7 µM
- Vmax [18]: 56.4 U/mg
- Km [19]: 35000 µM
- Vmax [19]: 22.2 U/mg
- Km [20]: 17 µM
- Vmax [20]: 35.7 U/mg
